What was measured:
[1] = molecular target: T1, HqRRM1,2 (hnRNP H tandem qRRMs) (human, UniProt P31943 10-194); assay: ITC
T1 sequence: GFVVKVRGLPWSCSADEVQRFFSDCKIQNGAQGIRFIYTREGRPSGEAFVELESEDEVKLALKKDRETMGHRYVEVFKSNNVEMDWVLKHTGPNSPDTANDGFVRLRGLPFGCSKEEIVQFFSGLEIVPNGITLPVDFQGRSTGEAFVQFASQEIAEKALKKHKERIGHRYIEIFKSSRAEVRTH

HqRRM2 (hnRNP H qRRM2) = molecular target: T2, HqRRM2 (hnRNP H qRRM2) (human, UniProt P31943 94-194); assay: ITC
T2 sequence: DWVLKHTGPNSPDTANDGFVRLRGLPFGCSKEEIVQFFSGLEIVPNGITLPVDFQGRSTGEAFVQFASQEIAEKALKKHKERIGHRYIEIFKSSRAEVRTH

HqRRM1 (hnRNP H qRRM1) = molecular target: T3, HqRRM1 (hnRNP H qRRM1) (human, UniProt P31943 10-111); assay: ITC
T3 sequence: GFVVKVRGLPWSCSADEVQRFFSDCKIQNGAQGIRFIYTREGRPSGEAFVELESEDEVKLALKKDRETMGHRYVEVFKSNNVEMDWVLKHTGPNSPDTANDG

HqRRM1,2 BTFA-labeled = molecular target: T4, HqRRM1,2 BTFA-labeled (human, UniProt P31943 10-194); assay: 19F NMR PRE
T4 sequence: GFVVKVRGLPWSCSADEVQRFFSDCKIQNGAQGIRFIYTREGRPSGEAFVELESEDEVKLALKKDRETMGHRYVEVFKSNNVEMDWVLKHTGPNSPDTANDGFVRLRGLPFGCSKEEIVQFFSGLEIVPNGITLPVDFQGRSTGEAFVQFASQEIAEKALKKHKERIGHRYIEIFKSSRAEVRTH

Binder: AGGGU (ssRNA)
- Kd [1]: 800 ± 100 nM
- Kd (HqRRM2 (hnRNP H qRRM2)): 2200 ± 800 nM
- Kd (HqRRM1 (hnRNP H qRRM1)): 3.2 ± 0.1 µM

Binder: AGGGAU (ssRNA, phosphorothioate between A5 and U6) [AGGGA*U spin-labeled]
- binding result (HqRRM1,2 BTFA-labeled): binds
